Laboratory results from patent publication US20040043378.

Biological target: T1, wild type HIV-1 Tat protein, FLAG-tagged, expressed in cells
T1 chain: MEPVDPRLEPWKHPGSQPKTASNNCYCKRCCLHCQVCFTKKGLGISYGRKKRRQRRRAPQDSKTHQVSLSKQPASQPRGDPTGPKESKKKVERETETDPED

B1: P/CAF (p300/CBP-associated factor), HA-tagged, expressed in cells (protein)
chain: MSEAGGAGPGGCGAGAGAGAGPGALPPQPAALPPAPPQGSPCAAAAGGSGACGPATAVAAAGTAEGPGGGGSARIAVKKAQLRSAPRAKKLEKLGVYSACKAEESCKCNGWKNPNPSPTPPRADLQQIIVSLTESCRSCSHALAAHVSHLENVSEEEMNRLLGIVLDVEYLFTCVHKEEDADTKQVYFYLFKLLRKSILQRGKPVVEGSLEKKPPFEKPSIEQGVNNFVQYKFSHLPAKERQTIVELAKMFLNRINYWHLEAPSQRRLRSPNDDISGYKENYTRWLCYCNVPQFCDSLPRYETTQVFGRTLLRSVFTVMRRQLLEQARQEKDKLPLEKRTLILTHFPKFLSMLEEEVYSQNSPIWDQDFLSASSRTSQLGIQTVINPPPVAGTISYNSTSSSLEQPNAGSSSPACKASSGLEANPGEKRKMTDSHVLEEAKKPRVMGDIPMELINEVMSTITDPAAMLGPETNFLSAHSARDEAARLEERRGVIEFHVVGNSLNQKPNKKILMWLVGLQNVFSHQLPRMPKEYITRLVFDPKHKTLALIKDGRVIGGICFRMFPSQGFTEIVFCAVTSNEQVKGYGTHLMNHLKEYHIKHDILNFLTYADEYAIGYFKKQGFSKEIKIPKTKYVGYIKDYEGATLMGCELNPRIPYTEFSVIIKKQKEIIKKLIERKQAQIRKVYPGLSCFKDGVRQIPIESIPGIRETGWKPSGKEKSKEPRDPDQLYSTLKSILQQVKSHQSAWPFMEPVKRTEAPGYYEVIRFPMDLKTMSERLKNRYYVSKKLFMADLQRVFTNCKEYNAAESEYYKCANILEKFFFSKIKEAGLIDK
Q: With B1 as the protein, how does the “Superinduction of Tat transactivation activity” value read?
A: as much as a 30-fold increase upon P/CAF stimulation
